Measured values: patent US20240239894A1 (AstraZeneca / MedImmune, published 2024)

T1: Human B7H4 (ECD) Fc TM 6H (human, UniProt Q7Z7D3)
T1 construct: ECD, native leader
T1 sequence (Q7Z7D3 whole entry, looked up): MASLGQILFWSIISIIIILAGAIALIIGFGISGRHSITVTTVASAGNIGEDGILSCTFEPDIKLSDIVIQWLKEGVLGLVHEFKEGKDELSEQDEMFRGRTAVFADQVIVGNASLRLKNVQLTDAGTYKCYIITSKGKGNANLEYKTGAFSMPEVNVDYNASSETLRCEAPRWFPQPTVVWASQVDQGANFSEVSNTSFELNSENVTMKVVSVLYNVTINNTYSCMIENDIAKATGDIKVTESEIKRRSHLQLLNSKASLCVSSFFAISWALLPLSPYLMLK

T2: huBTNL3 (human, UniProt Q6UXE8 18-237, limits assumed)
T2 construct: Sourced antigen; construct not described; also called Human BTNL3
T2 sequence (looked up): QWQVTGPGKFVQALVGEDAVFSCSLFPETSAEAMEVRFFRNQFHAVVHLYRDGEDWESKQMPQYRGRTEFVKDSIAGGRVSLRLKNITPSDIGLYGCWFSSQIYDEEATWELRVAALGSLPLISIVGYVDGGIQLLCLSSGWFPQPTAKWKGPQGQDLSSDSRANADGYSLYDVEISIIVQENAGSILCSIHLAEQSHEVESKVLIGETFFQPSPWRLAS

T3: huBTN2A1 (human, UniProt Q7KYR7 29-248, limits assumed)
T3 construct: Sourced antigen; construct not described; also called Human BTN2A1
T3 sequence (looked up): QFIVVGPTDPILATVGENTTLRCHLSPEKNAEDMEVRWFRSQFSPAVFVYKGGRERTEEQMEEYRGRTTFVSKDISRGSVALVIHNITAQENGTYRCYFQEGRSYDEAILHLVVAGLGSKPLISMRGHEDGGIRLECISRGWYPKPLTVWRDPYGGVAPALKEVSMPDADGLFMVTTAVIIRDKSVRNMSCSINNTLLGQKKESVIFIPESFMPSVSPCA

T4: huBTN1A1 (human, UniProt Q13410 27-242, limits assumed)
T4 construct: Sourced antigen; construct not described; also called Human BTN1A1
T4 sequence (looked up): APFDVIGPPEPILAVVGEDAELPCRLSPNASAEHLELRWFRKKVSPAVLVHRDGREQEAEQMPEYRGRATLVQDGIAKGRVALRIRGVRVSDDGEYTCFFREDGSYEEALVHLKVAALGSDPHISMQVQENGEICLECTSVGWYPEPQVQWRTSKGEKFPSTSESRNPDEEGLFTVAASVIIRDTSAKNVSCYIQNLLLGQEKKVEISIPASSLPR

T5: huHHLA2 (human, UniProt Q9UM44 23-344)
T5 construct: Sourced antigen; construct not described; also called Human HHLA2
T5 sequence (looked up): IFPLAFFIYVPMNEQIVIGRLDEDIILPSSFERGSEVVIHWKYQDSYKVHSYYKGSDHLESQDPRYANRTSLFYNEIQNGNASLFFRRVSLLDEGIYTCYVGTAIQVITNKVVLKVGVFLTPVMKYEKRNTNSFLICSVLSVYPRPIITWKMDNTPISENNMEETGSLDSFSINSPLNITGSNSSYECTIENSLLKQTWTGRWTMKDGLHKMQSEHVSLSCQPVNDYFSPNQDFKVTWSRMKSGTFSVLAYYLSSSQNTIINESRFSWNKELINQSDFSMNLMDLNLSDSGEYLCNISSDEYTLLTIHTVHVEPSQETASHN

T6: Murine B7-H4-Fc (Mouse B7H4 ECD, Fc_6His) (mouse, UniProt Q7TSP5 25-257)
T6 construct: extracellular domain; also called mouse B7-H4-Fc; FcHis6 tagged murine B7-H4
T6 sequence (Q7TSP5 whole entry, looked up): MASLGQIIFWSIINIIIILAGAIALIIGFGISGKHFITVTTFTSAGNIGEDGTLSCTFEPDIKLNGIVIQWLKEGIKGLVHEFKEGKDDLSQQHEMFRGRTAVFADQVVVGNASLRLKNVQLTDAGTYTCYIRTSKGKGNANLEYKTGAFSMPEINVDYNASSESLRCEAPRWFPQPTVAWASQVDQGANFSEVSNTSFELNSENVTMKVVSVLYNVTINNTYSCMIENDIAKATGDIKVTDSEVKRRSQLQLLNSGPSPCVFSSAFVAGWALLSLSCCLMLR

T7: Human B7-H4 ECD-Flag-His10 (monomeric) (human, UniProt Q7Z7D3 25-259)
T7 construct: Minimally biotinylated for KinExA; also called hB7H4-ECD-Flag-His10; B7-H4-FLAG
T7 sequence: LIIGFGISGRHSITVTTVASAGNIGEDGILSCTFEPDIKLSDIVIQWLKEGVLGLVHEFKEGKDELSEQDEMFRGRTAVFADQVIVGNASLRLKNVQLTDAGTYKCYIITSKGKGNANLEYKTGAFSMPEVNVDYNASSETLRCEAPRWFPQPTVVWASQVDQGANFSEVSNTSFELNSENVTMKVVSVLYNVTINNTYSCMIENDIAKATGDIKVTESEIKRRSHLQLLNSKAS

T8: Human B7-H4-Fc (Human B7H4 ECD, Fc_6His) (human)
T8 construct: also called FcHis6 tagged human B7-H4
T8 sequence (Q7Z7D3 whole entry, looked up): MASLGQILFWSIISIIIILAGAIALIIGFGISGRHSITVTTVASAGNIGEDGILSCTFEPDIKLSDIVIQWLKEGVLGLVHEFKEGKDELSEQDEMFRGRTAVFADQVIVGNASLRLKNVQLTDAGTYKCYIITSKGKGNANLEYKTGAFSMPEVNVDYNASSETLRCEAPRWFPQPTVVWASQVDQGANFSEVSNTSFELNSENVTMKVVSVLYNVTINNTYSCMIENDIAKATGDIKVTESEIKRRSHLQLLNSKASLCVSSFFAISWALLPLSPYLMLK

T9: huB7-H2 (human, UniProt O75144 19-258)
T9 construct: Sourced antigen; construct not described; also called Human B7-H2
T9 sequence (looked up): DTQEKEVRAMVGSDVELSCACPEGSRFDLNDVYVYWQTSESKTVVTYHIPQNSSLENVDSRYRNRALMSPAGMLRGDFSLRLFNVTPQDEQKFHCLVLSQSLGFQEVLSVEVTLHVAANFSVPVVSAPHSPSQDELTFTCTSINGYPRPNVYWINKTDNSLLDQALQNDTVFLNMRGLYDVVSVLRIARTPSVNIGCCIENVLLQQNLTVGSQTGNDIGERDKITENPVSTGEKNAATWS

T10: huB7-H3 (human, UniProt Q5ZPR3 29-461, limits assumed)
T10 construct: Sourced antigen; construct not described; also called Human B7-H3
T10 sequence (looked up): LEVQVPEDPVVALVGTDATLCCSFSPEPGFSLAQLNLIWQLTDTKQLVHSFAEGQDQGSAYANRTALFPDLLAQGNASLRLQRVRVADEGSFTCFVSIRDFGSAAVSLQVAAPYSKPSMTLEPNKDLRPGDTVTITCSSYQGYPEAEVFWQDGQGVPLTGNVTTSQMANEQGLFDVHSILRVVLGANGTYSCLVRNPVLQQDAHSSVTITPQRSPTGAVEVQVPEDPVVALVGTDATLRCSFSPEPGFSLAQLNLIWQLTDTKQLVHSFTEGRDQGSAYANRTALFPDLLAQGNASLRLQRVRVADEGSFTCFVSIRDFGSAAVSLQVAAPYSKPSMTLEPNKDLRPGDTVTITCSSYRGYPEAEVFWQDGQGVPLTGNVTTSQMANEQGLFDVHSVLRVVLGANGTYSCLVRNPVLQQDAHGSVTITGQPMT


What was measured:
[1] = target: T11, Cyno B7-H4-Fc (Cyno B7H4 ECD, FcTM_6His) (cynomolgus monkey); assay: ELISA, absorbance 450 nm, Cyno B7H4 (ECD) Fc TM 6H; x axis printed as antigen concentration (nM)
T11 construct: extracellular domain; also called cynomolgus B7-H4-Fc

[2] = target: T1, Human B7H4 (ECD) Fc TM 6H; assay: ELISA, absorbance 450 nm, Human B7H4 (ECD) Fc TM 6H; x axis printed as antigen concentration (nM)
huBTNL3 = target: T2, huBTNL3; assay: ELISA
huBTN2A1 = target: T3, huBTN2A1; assay: ELISA
huBTN1A1 = target: T4, huBTN1A1; assay: ELISA, absorbance 450 nm, antigen human BTN1A1 GST
huHHLA2 = target: T5, huHHLA2; assay: ELISA, absorbance 450 nm, antigen human HHLA2 GST
[3] = target: T6, Murine B7-H4-Fc (Mouse B7H4 ECD, …); assay: HTRF binding, murine IgG1
huB7-H1 = target: T12, huB7-H1 (human, UniProt Q9NZQ7 19-238); assay: ELISA, absorbance 450 nm, antigen human B7-H1(ECD) F10H
T12 construct: Sourced antigen; construct not described; also called Human B7-H1

[4] = target: T7, Human B7-H4 ECD-Flag-His10 (monomeric); assay: ELISA, absorbance 450 nm; x axis of this panel printed as Antibody Conc (µg/ml)
[5] = target: T8, Human B7-H4-Fc (Human B7H4 ECD, Fc_6His); assay: as above
huB7-H2 = target: T9, huB7-H2; assay: ELISA, absorbance 450 nm, antigen human B7-H2 (ECD) F10H
huBTN3A2 = target: T13, huBTN3A2 (human, UniProt P78410 30-248, limits assumed); assay: ELISA, absorbance 450 nm, antigen human BTN3A2 GST
T13 construct: Sourced antigen; construct not described; also called Human BTN3A2

[6] = target: T11, Cyno B7-H4-Fc (Cyno B7H4 ECD, FcTM_6His); assay: HTRF binding, murine IgG1
huB7-H3 = target: T10, huB7-H3; assay: ELISA, absorbance 450 nm, antigen human B7-H3 (ECD) Fc
[7] = target: T8, Human B7-H4-Fc (Human B7H4 ECD, Fc_6His); assay: HTRF binding, murine IgG1
[8] = target: T7, Human B7-H4 ECD-Flag-His10 (monomeric); assay: ELISA, absorbance 450 nm; x axis printed as antigen concentration (µg/ml)
[9] = target: T8, Human B7-H4-Fc (Human B7H4 ECD, Fc_6His); assay: as above

T13 sequence (P78410 30-248 limits assumed): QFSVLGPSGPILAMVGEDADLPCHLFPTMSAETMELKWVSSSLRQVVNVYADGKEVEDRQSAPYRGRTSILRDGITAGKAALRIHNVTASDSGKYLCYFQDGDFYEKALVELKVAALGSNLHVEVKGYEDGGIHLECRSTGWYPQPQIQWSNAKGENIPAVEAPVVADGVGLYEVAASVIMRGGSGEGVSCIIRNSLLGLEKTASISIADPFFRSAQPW
T12 sequence (Q9NZQ7 19-238 limits assumed): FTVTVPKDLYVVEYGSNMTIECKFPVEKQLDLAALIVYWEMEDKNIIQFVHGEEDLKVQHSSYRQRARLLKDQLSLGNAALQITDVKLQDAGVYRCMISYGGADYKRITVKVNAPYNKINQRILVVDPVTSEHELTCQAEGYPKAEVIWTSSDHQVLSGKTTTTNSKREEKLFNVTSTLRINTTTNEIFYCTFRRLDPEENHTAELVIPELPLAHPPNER

Binder | EC50 (read off the curve) [1] | EC50 (read off the curve) [2] | binding result (huBTNL3) | binding result (huBTN2A1) | binding result (huBTN1A1) | binding result (huHHLA2) | EC50 [3] | Max [3] | binding result (huB7-H1) | EC50 (read off the curve) [4] | EC50 (read off the curve) [5] | binding result (huB7-H2) | binding result (huBTN3A2) | EC50 [6] | Max [6] | binding result (huB7-H3) | EC50 [7] | Max [7] | EC50 (read off the curve) [8] | EC50 (read off the curve) [9]
E02-GL-maia (antibody, human IgG1, kappa, Maia format: cysteine insertion in the IgG1 constant region; also called germlined (GL) Maia format mAb) heavy: QVQLQQWGAGLLKPSETLSLACTVYGGSFSGYYWNWIRQPPGKGLEWIGEINHSGSTSYNPSLKSRVTISVDTSKNQFSLKLSSVTAADTAVYYCARVLYNWNVDSWGQGTLVTVSSASTKGPSVFPLAPSSKSTSGGTAALGCLVKDYFPEPVTVSWNSGALTSGVHTFPAVLQSSGLYSLSSVVTVPSSSLGTQTYICNVNHKPSNTKVDKRVEPKSCDKTHTCPPCPAPELLGGPSCVFLFPPKPKDTLMISRTPEVTCVVVDVSHEDPEVKFNWYVDGVEVHNAKTKPREEQYNSTYRVVSVLTVLHQDWLNGKEYKCKVSNKALPAPIEKTISKAKGQPREPQVYTLPPSREEMTKNQVSLTCLVKGFYPSDIAVEWESNGQPENNYKTTPPVLDSDGSFFLYSKLTVDKSRWQQGNVFSCSVMHEALHNHYTQKSLSLSPGK light: DIQMTQSPSSLSASVGDRVTITCRASQDIRNDVGWYQQKPGKAPKRLIYAASRLQSGVPSRFSGSGSGTEFTLTISSLQPEDFATYYCLQHNSYPRTFGQGTKVEIKRTVAAPSVFIFPPSDEQLKSGTASVVCLLNNFYPREAKVQWKVDNALQSGNSQESVTEQDSKDSTYSLSSTLTLSKADYEKHKVYACEVTHQGLSSPVTKSFNRGEC | ~10 nM | ~10 nM |  |  |  |  |  |  |  |  |  |  |  |  |  |  |  |  |  | 
ZY0EPQ-E02 murine IgG1 (antibody, V domains shown) VH: QVQLQQWGAGLLKPSETLSLTCAVYGGSFSGYYWNWIRQPPGKGLEWIGEINHSGSTNYNPSLKSRVTILVDTSKNQFSLKLSSVTAADTAVYYCARNLYNWNLDSWGQGTLVTVSS VL: DIQMTQSPSSLSASVGDRVTITCRASQGIRNDLGWYQQKPGRAPKRLIYVASSLQSGVPSRFSGSGSGTEFTLTISSLQPEDFATYYCLQHNSYPRTFGQGTKVEIK |  |  | no binding | no binding | no binding (tested: 10 µg/ml (antigen)) | no binding (tested: about 10 µg/ml (antigen)) | 2.03 nM | 790 | no binding (tested: 10 µg/ml (antigen)) | ~0.2 µg/mL | ~0.2 µg/mL | no binding (tested: 10 µg/ml (antigen)) | no binding (tested: about 10 µg/ml (antigen)) | 0.38 nM | 2240 | no binding | 0.38 nM | 2740 |  | 
ZY0EQD-E02 murine IgG1 (antibody, V domains shown) VH: QVQLQQWGAGLLKPSETLSLTCAVYGGSFSGYYWNWIRQPPGKGLEWIGEINHSGSTSYNPSLKSRVTISVDTSKNQFSLKLSSVTAADTAVYYCARVLYNWNVDSWGQGTLVTVSS VL: DIQMTQSPSSLSASVGDRVTITCRASQDIRNDVGWYQQKPGKAPKRLIYAASRLQSGVPSRFSGSGSGTEFTLTISSLQPEDFATYYCLQHNSYPRTFGQGTKVEIK |  |  | no binding | no binding | no binding (tested: 10 µg/ml (antigen)) | no binding (tested: about 10 µg/ml (antigen)) | 3.64 nM | 447 | no binding (tested: 10 µg/ml (antigen)) |  |  | no binding (tested: 10 µg/ml (antigen)) | no binding (tested: about 10 µg/ml (antigen)) | 0.22 nM | 2490 | no binding | 0.22 nM | 3170 | ~0.04 µg/mL | ~0.03 µg/mL
